Experimental data as given in US20260109742A1 (LUMEN BIOSCIENCE, published 2026).
Substitutions are numbered along the chain they refer to. In names and notes the source's numbering stands.

B1: PP1895 (S3B-C8_smAKAP-C70S_C78S_S3B-C8_H6) (bispecific antibody)
chain: MSGQVQLVESGGGLVQPGGSLRLSCAASGSIENIERMHWYRQAPGKQRELVAVIDSGGTTRYADSVKGRFTISRDNAKNTVYLQMNSLKPEDTAVYYCAAVWLTNAESTQEYWGQGTQVTVSSGGTVILEYAHRLSQDILSDALQQWASSGGGGSGGGGGQVQLVESGGGLVQPGGSLRLSCAASGSIENIERMHWYRQAPGKQRELVAVIDSGGTTRYADSVKGRFTISRDNAKNTVYLQMNSLKPEDTAVYYCAAVWLTNAESTQEYWGQGTQVTVSSGGSHHHHHH
B2: PP2455 (myctag-S3b-C8-smAKAP_R63E_C70S_C78G-S3b-C8-H6) (bispecific antibody)
chain: MEQKLISEEDLSGGQVQLVESGGGLVQPGGSLRLSCAASGSIENIERMHWYRQAPGKQRELVAVIDSGGTTRYADSVKGRFTISRDNAKNTVYLQMNSLKPEDTAVYYCAAVWLTNAESTQEYWGQGTQVTVSSGGGGSTVILEYAHELSQDILSDALQQWAGGGSGSQVQLVESGGGLVQPGGSLRLSCAASGSIENIERMHWYRQAPGKQRELVAVIDSGGTTRYADSVKGRFTISRDNAKNTVYLQMNSLKPEDTAVYYCAAVWLTNAESTQEYWGQGTQVTVSSHHHHHH
notes: also called R63E mutant
B3: PP2456 (myctag-S3b-C8-smAKAP_R63E_C70S_W76S_C78G-S3b-C8-H6) (bispecific antibody)
chain: B2 chain with W161S
notes: also called pp 2456 (W76S)

Experiments:
[1] = target: PP1113 (MBP-5HVZ-PAPA-RN-29-H6); experiment: hydrabody complex of smAKAP-linked VHH dimer with 5HVZ homodimer
Method: Briefly, to Assess in vitro protease stability of clones, purified protein samples were prepared at 0.2 mg/mL in protease digestion buffer (20 mM Bis-Tris, 150 mM NaCl, 3 mM CaCl2 pH 6.0). The protease enzymes trypsin and chymotrypsin were diluted from 1 mg/mL stalk concentration to 0.2 mg/mL in protease digest buffer. Both the protein and enzyme were diluted 1:10 in protease digestion buffer. The digestion reactions were conducted by mixing 30 μL of diluted protein and 30 μL of diluted protease. The reactions were mixed by centrifugation for 30 seconds at high speed and incubated at 37° C. for 60 minutes with shaking at 900 rpm in an Eppendorf ThermoMixer. Reactions were quenched with an equal volume of stop buffer containing 2 mM PMSF and 2× Pierce protease inhibitor minitablet in PBS. The final concentration of each VHH homodimer after protease neutralization was 0.1 mg/mL. Samples were kept on ice for ELISA assay.
Digested protein samples were analyzed for binding activity via ELISA. High-binding ELISA plates were coated with 100 μl/well of 1 μg/mL SARS-COV-2 RBD in CBC binding buffer and incubated overnight at 4° C. Plates were washed 3× with PBS supplemented with 0.05% Tween-20 (PBS-tw), then blocked for 1 hour with 300 μl/well of blocking buffer (PBS-tw supplemented with 5% Non-fat dried milk). […] Absorbance was read at 450 nm with a Spectra Max M5 plate reader.

[2] = target: PP1113 (MBP-5HVZ-PAPA-RN-29-H6); experiment: analytical SEC, 5HVZ dimer with smAKAP clone at 1:2 molar ratio

| Binder | binding result [1] | binding result [2] |
| --- | --- | --- |
| B1 | binds |  |
| B2 |  | binds |
| B3 |  | binds |
